Measured values as given in patent US20200223906A1 (Adimab, published 2020).
Substitutions are numbered along the chain they refer to.

B1: ADI-18921 (antibody, V domains shown)
VH: QVQLVQSGSEVKKPGASVRLSCKVAGYSLSELSMHWVRQSPGKGLEWLGAFDHEDAEAIYAPRFQGRITMTADTSTDTAYMELSSLRSEDTAVYYCATPTPVGATDYWGQGTLVTVSS
VL: DIQMTQSPSSLSASVGDRVTITCRASQSISSYLNWYQQKPGKAPKLLIYAASSLQRGGPSRFSGSGSGTDFTLTISSLQPEDFATYYCQQSYIIPYTFGQGTKVDIK
notes: full-length IgG from yeast
B2: ADI-18928 (antibody, V domains shown)
VH: QVQLVQSGAEVKRPGSSVRVSCKASGGTFRKYAISWVRQARGQGLEWMGGIIPMSGPPSYAQKFQGRVTITADESTSTVYMELSSLRFEDTAVYFCARDIEWFVLMDPITSYYPMDVWGQGTTVTVSS
VL: QSVVTQEPSLTVSPGGTVTLTCGSSTGGVTSGHHTYWFQQKPGQAPRTLIYDTTNTHSWTPARFAGSLLGGKAALTLSGAQPEDEADYYCLLSYSGARPVFGGGTKLTVL
notes: full-length IgG from yeast
B3: ADI-18930 (antibody, V domains shown)
VH: QVQLVQSGAEVKKPGSSVKVSCKASGGTFSGYHISWVRQAPGQGLEWMGGIIHLFGTVNYAPKFQGRVTITADASTGTAYMELNSLMSEDTAVYYCARDAYEVWTGSYLPPFDYWGQGTLVTVSS
VL: EIVLTQSPGTLSLSPGERVTLSCRASQTVTSSYLAWYQQKPGQAPRLLIYGAFTRATDIPDRFSGSGSGTDFTLTISRLEPEDSAVYYCQQYGSSFLTFGGGTKVDIK
notes: full-length IgG from yeast
B4: ADI-18875 (antibody, V domains shown)
VH: QVQLQQWGAGLLKPSETLSLTCAVYGGSFSGYSWSWIRQTPGKGLEWIGEINHRGSTNYNPSLKSRVTMSVDTSQNQISLRVTSVTAADTAVYFCAGTNYGEVNTSNQYFFGMDVWGQGTTVTVSS
VL: DIQVTQSPSSLSASVGDRVTITCRASQSIGTYLNWYQQKPGKPPKLLIYAASNLESGVPSSFSGSGSGTHFTLTISSLQPEHFATYYCQQSYSTPLTFGGGTKVEIK
notes: full-length IgG from yeast; also called Antibody Number 232; Ab # 232
B5: ADI-18967 (antibody, V domains shown)
VH: QVQLVQSGAEVKKPGASVKVACKVSGSSLTELSIQWVRLPPGKRLEWLGAFDAEDGAPIYSPKFQGRVTMTEDRSTETAYMEVTSLRSEDTALYYCATPLPAGALDKWGQGTLVTVSS
VL: DIQMTQSPSSLSASVGDRVTISCRASQTISRYLNWYQVKPGTAPKLLIYAASSLQTGVPSRFSASGSGADFTLTISSLQPEDFATYHCQQTYIIPYTFGQGTKVDIK
notes: full-length IgG from yeast; also called Antibody Number 315; Ab # 315
B6: ADI-18879 (antibody, V domains shown)
VH: EVQLLESGGEVKKPGASVKVSCRASGYTFRNYGLTWVRQAPGQGLEWMGWISAYNGNTNYAQKFQGRVTLTTDTSTSTAYMELRSLRSDDTAVYFCARDVPGHGAAFMDVWGTGTTVTVSS
VL: DIQLTQSPLSLPVTLGQPASISCRSSQSLEASDTNIYLSWFQQRPGQSPRRLIYKISNRDSGVPDRFSGSGSGTHFTLRISRVEADDVAVYYCMQGTHWPPAFGQGTKVDIK
notes: full-length IgG from yeast
B7: ADI-18903 (antibody, V domains shown)
VH: B6 VH with L5V
VL: B6 VL with D1E, I2T, Q3T, V109L, D110E
notes: full-length IgG from yeast
B8: ADI-18927 (antibody, V domains shown)
VH: QVQLVQSGAEVKKPGASVKVSCKASGYTFTDYFIHWVRQAPGEGLEWMGWVNPLSDNTKYSQKFQGRVTMSTDTSITTAYMYLSRLRFDDTAVYFCASQSSPYTPGALDVWGQGTTVTVSS
VL: DIQLTQSPSSLPASVGDRVTITCRASQNIGNNLAWYQQKAGRAPKLLIYSASNFHSGVPSRFIGSGSGTVFTLTISSLQPEDFATYFCQQSFTPQFTFGPGTKVEIK
notes: full-length IgG from yeast

biological target: RSV F protein of subtype A (strain A2) on recombinant mKate-RSV virus (Respiratory syncytial virus subtype A …, UniProt P03420 26-574); test: cell-based or functional assay

Binder	Neut IC50 (µg/ml) subtype A [µg/mL]
B1	1.7
B2	0.034
B3	0.013
B4	0.04
B5	6.74
B6	0.041
B7	0.036
B8	0.022

biological target: RSV F protein of subtype B (18537) on recombinant mKate-RSV virus (Respiratory syncytial virus subtype B …, UniProt P13843 26-574); test: cell-based or functional assay

Binder	Neut IC50 (µg/ml) subtype B [µg/mL]
B1	1.17
B2	0.062
B3	0.051
B4	0.035
B5	3.65
B6	0.103
B7	0.118
B8	0.067

biological target: T1, RSV F subtype A, furin-cleaved ectodomain stabilized in the prefusion conformation (DS-Cav1) (Respiratory syncytial virus subtype A, UniProt P03420 26-524); test: BLI, IgG on AHQ sensor, 100 nM antigen
T1 construct: extracellular domain; Trimeric soluble antigen; also called Prefusion subtype A

Binder	Kd [pM]
B1	5750
B2	449
B3	387
B4	736
B5	809
B6	312
B7	324
B8	3580

biological target: T2, RSV F subtype B, furin-cleaved ectodomain stabilized in the prefusion conformation (DS-Cav1) (Respiratory syncytial virus subtype B); test: BLI, IgG on AHQ sensor, 100 nM antigen
T2 construct: extracellular domain; Trimeric soluble antigen; also called Prefusion subtype B

Binder	Kd [pM]
B2	515
B3	372
B4	764
B6	358
B7	272
B8	2990
